Test results published in patent publication US11945844B2, “Taste and flavor-modifier proteins” (AMAI PROTEINS LTD., priority 2018, dated 2024).
Positions count from the first letter of the chain named. Names and notes keep the numbering of the source.

Assays:
participants = test: Example 1D: blind comparison of combinations at 8.0° BX perception with 3.0° BX sugar addition; type: in vivo, human; conditions: 8.0 °BX perception (3.0° BX sugar addition)
Procedure: Further combinations were tested in blind comparison of the various combinations to sugar solution in 6 participants.

healthy assessors [1] = test: Example 1B: double-blind taste assay, sweet taste threshold in soft drink model solution; type: in vivo, human; conditions: for sweetness average score: grade 0-10; for sweetness potency simulating 1 °Bx perception: relative to sucrose
Procedure: The sweetness potency of MNEI-based proteins described herein relative to sucrose is typically in the range of 1:700 to 1:16,000. Thus, for the sake of comparison, the MNEI-based proteins and MNEI (as a reference protein) solutions were initially diluted 1:1000 and further diluted as needed. In general, the sweetness threshold of sugar for most people in soft drinks is 0.32%-1.0%. Calculations of MNEI-based proteins and MNEI (as a reference protein concentrations were carried out accordingly. The solutions that were used in this study are detailed in Table 5. The solutions were prepared as follows: for each solution, an amount sweetener (sucrose/MNEI/Designer (modified) Protein; See Table 1 for details) was added as indicated in Table 3 and the solution was completed to 100 g with water (in order to obtain 1% sugar equivalent sweetener). 20 ml of each solution was poured into tasting cup and each sample was marked for blind testing according to Table 5. To evaluate the sweetness threshold for each one of the […] solutions, a double-blind taste assay was performed. The samples tested included MNEI, two MNEI designer proteins (DM08 and DM10), sucrose and mineral water. A series of concentrations were prepared by diluting the stock solution of proteins with mineral water (pH 6.9) shortly before the taste assay (Table 3). Five healthy assessors participated in this session, 2 men and 3 women, 30-50 years old of which 3 were trained tasters. Twenty ml samples were tested randomly, in comparison to sugar solution. Before each assay, assessors were requested to rinse their mouth with water and to eat a neutral-taste cracker until no residual taste remained. The test solution was held in the mouth for at least 10 seconds. The assessors then graded the sample according to their response between 0-10; 0-no sweet perception, 10-very sweet. The sweetness detection threshold was defined as the lowest concentration at which the taster recognized the sample as sweet. Sweetness potencies are reported relative to sucrose.

trained participants = test: Example 1D: blind testing of sweetness potency, aftertaste and lingering in comparison to sugar solution; type: in vivo, human; conditions: for sweetness potency at 8 °BX perception, greater than sugar / sweetness threshold, greater than sugar by weight: fold over sugar
Procedure: Based on the optimization above, the sweetness potency, the aftertaste and the lingering effect of DM08 and DM09 were tested as compared with MNEI and additional sweeteners as shown in Table 7. Test method included blind testing in 6 trained participants of each one of the proteins in comparison to sugar solution.

healthy assessors [2] = test: Example 1C: double-blind taste assay, sweet taste threshold in solution; type: in vivo, human; conditions: for sweetness potency compatible with / simulating 1 °Bx sugar solution: relative to sucrose
Procedure: The solutions that were used in this study are detailed in Table 4. The solutions were prepared as follows: for each solution, an amount sweetener (sucrose/MNEI/Designer Protein; See Table 1 for details) was added as indicated in Table 6 and the solution was completed to 100 g with water (in order to obtain 1% sugar equivalent sweetener). 20 ml of each solution was poured into tasting cup and each sample was marked for blind testing according to Table 6. To evaluate the sweetness threshold for each one of the […] solutions, a double-blind taste assay was performed. The samples tested included MNEI, […] ([…]), sucrose and mineral water. A series of concentrations were prepared by diluting the stock solution of proteins with mineral water (pH 6.9) shortly before the taste assay (Table 6). Six healthy assessors participated in this session, 5 men and 1 woman, 30-75 years old of which half were trained tasters The sweetness detection threshold was defined as the lowest concentration at which the taster recognized the sample as sweet. Sweetness potencies are reported relative to sucrose. Twenty ml samples were tested randomly, in comparison to sugar solution. Before each assay, assessors were requested to rinse their mouth with water and to eat a neutral-taste cracker until no residual taste remained. The test solution was held in the mouth for at least 10 seconds. The assessors then graded the sample according to their response between 0-10; 0-no sweet perception, 10-very sweet. The sweetness detection threshold was defined as the lowest concentration at which the taster recognized the sample as sweet. Sweetness potencies are reported relative to sucrose.

[3] = single substitution in MNEI, Zheng et al; cited from earlier work
[4] = single substitution in MNEI, Zheng et al; cited from earlier work; remark: listed apart in the source
[5] = Structural thermal stability (Tm); type: physicochemical
Description: The term “structural thermal stability” or “thermal stability” as used herein refers to the ability of the modified protein to retain its 3D structure at temperatures above that of the reference protein. The 3D structural stability of a protein can be measured by any method known in the art, such as Circular Dichroism (CD), or thermal shift assays such as Differential Scanning Fluorimetry (DSF) or Differential Scanning calorimetry (DSC). The 3D structure of a protein may have an effect on the function of the protein.

[6] = Sweetness potency relative to MNEI (Table 10); type: in vivo; conditions: MNEI = 1.0
Shelf life stability = type: physicochemical; conditions: at 4° C.
Procedure: In some embodiments the modified protein has improved shelf life relative to the reference protein. Improved shelf life refers to no sensed change in the sweetness (function) or physical deterioration of a product comprising the composition (e.g. color change, phase separation etc.) after exposure of the product to any temperature up to 150° C., at times, to any temperature between 4° C. to 150°, or to 100°.

[7] = dilution factor 1:500, grade 0-10
[8] = dilution factor 1:1,000, grade 0-10
[9] = dilution factor 1:2,000, grade 0-10

OC[C@H]1O[C@@](CO)(O[C@H]2O[C@H](CO)[C@@H](O)[C@H](O)[C@H]2O)[C@@H](O)[C@@H]1O [Sucrose, reference compound]
After Taste (participants): No
Late onset (participants): No
Lingering (participants): No
sweetness average score (healthy assessors [1]; 0.5% sucrose solution, 5 assessors): 0.63±0.6
sweetness average score (healthy assessors [1]; 1% sucrose solution, 5 assessors): 1.25±0.9
Estimated threshold concentration (trained participants; ratio relative to sucrose, 6 trained participants): 1
Additional After Taste & Notes (trained participants; single sweetener (Table 7)): No
Late onset (trained participants; single sweetener (Table 7)): No
Lingering After Taste (trained participants; single sweetener (Table 7)): No
sweetness average score (healthy assessors [2]; 0.5% sucrose solution, grade 0-10, 6 assessors): 1.9±0.9
sweetness average score (healthy assessors [2]; 1% sucrose solution, grade 0-10, 6 assessors): 3.8±1.9

B1: E2N: MNEI with amino acid substitution E2N, CPD model; also reported by Zheng et al (protein)
chain: GNWEIIDIGPFTQNLGKFAVDEENKIGQYGRLTFNKVIRPCMKKTIYENEGFREIKGYEYQLYVYASDKLFRADISEDYKTRGRKLLRFNGPVPPP
modifications: Monelin MNEI
notes: MNEI with amino acid substitution E2N, CPD model; also reported by Zheng et al
improved sweetness [3]: 3 fold
stability [4]: slight reduced stability

B2: DM10: modified MNEI protein, SEQ ID NO: 18, Q28K/R31T/N35T/S67N (protein)
chain: B1 chain with N2E, Q28K, R31T, N35T, S67N
modifications: DM10
Tm (° C.) Structural thermal stability [5]: 71 °C
sweetness potency simulating 1 °Bx perception (healthy assessors [1]): about 1,000
Sweetness Potency relative to MNEI [6]: 0.5

B3: DM08: modified MNEI protein, SEQ ID NO:16, E2N/E23V/Y65K (protein)
chain: B1 chain with E23V, Y65K
modifications: DM8
Tm (° C.) Structural thermal stability [5]: 81 °C
sweetness potency simulating 1 °Bx perception (healthy assessors [1]): about 10,000
sweetness potency at 8 °BX perception, greater than sugar (trained participants): 3,500
sweetness threshold, greater than sugar by weight (trained participants): 10,000
Additional After Taste & Notes (trained participants; single sweetener (Table 7)): Low bitterness
Lingering After Taste (trained participants; single sweetener (Table 7)): Sweet lingering
shelf life stability (Shelf life stability): At least 6 months
Sweetness Potency relative to MNEI [6]: 6.0

B4: DM09: modified MNEI protein, SEQ ID NO:17, E2N/E23A/Y65R (protein)
chain: B1 chain with E23A, Y65R
modifications: DM9
Tm (° C.) Structural thermal stability [5]: 81 °C
melting temperature compared with MNEI ([5]; summary of Table 10): at least equal or improved
sweetness potency at 8 °BX perception, greater than sugar (trained participants): 4,000
sweetness threshold, greater than sugar by weight (trained participants): 15,000
shelf life stability (Shelf life stability): At least 6 months
Sweetness Potency relative to MNEI [6]: 7.5

B5: DM12: modified MNEI protein, SEQ ID NO: 20, I8T/C41T as printed in Table 4 (protein)
chain: B1 chain with N2E, I8T, C41T, R84L
modifications: DM12
Tm (° C.) Structural thermal stability [5]: 65 °C
sweetness average score (healthy assessors [2]; all dilution factors (1:500, 1:1,000, 1:2,000), no noticeable dose response): ~1.0
Sweetness Potency relative to MNEI [6]: 0.5

B6: DM03: modified MNEI protein, SEQ ID NO: 15, E2N/I8T/N14K/E23A/Q28K/R31T/N35T/C41T/Y65K/S67N/R84L (protein)
chain: B1 chain with I8T, N14K, E23A, Q28K, R31T, N35T, C41T, Y65K, S67N, R84L
modifications: DM3
Tm (° C.) Structural thermal stability [5]: 81.5 °C
Sweetness Potency relative to MNEI [6]: Not sweet at all

B7: DM11: modified MNEI protein, SEQ ID NO: 19, I8T/N14K/C41T/R84L (protein)
chain: B1 chain with N2E, I8T, N14K, C41T, R84L
modifications: DM11
Tm (° C.) Structural thermal stability [5]: 69 °C
sweetness average score (healthy assessors [2]; [7]): 0.0±0.0
sweetness average score (healthy assessors [2]; [8]): 0.3±0.8
sweetness average score (healthy assessors [2]; [9]): 0.4±0.9
sweetness potency compatible with / simulating 1 °Bx sugar solution (healthy assessors [2]): below 500
Sweetness Potency relative to MNEI [6]: 0.2

B8: MNEI: single chain Monellin (MNEI) reference protein, SEQ ID NO:5, 96 amino acids (protein)
chain: B1 chain with N2E
modifications: Monelin MNEI
Tm (° C.) Structural thermal stability [5]: 69 °C
sweetness average score (healthy assessors [1]; dilution factor 1:1,000): 2.2±1.0
sweetness average score (healthy assessors [1]; dilution factor 1:2,000): 0.98±0.4
sweetness average score (healthy assessors [1]; dilution factor 1:4,000): 0.68±0.2
sweetness potency simulating 1 °Bx perception (healthy assessors [1]): about 2,000
Lingering After Taste (trained participants; single sweetener (Table 7)): Sweet lingering
shelf life stability (Shelf life stability): At least 12 months
sweetness average score (healthy assessors [2]; [7]): 4.7±3.2
sweetness average score (healthy assessors [2]; [8]): 2.5±1.4
sweetness average score (healthy assessors [2]; [9]): 1.0±0.7
sweetness potency compatible with / simulating 1 °Bx sugar solution (healthy assessors [2]): about 1,000
Sweetness Potency relative to MNEI [6]: 1.0
